Laboratory results from US20260258124A1 (CIMEIO THERAPEUTICS, published 2026).
Residue numbers refer to the chain shown, from its start.

B1: Allalinhorn (antibody, V domains shown)
VH: QVQLVQSGAEVKKPGASVKVSCKASGYTFTSYNMHWVRQAPGQGLEWMGVIYSGNGDTSYNQKFKGRVTMTTDTSTSTAYMELRSLTSDDTAVYYCARERDTRFGNWGQGTLVTVSA
VL: EIVLTQSPSSLSASVGDRVTITCRASESVDIYGESFMHWYQQKPGKAPKLLIYLASNLESGVPSRFSGSGSGTDFTLTISSLQPEDFATYYCQQNKEEPYTFGQGTKLEIKR
notes: IgG; also called VH1/VL1.19; Allaninhorn
B2: Bietschhorn (antibody, V domains shown)
VH: B1 VH
VL: B1 VL with K96R
notes: IgG; also called VH1/VL1.29
B3: NegCtrl (antibody, V domains shown)
VH: QVQLQQSGPGLVKPSQTLSLTCAISGDSVSSNSAAWSWIRQSPGRGLEWLGRIYYRSKWYNDYAVSVKSRITINPDTSKNQFSLQLNSVTPEDTAVYYCARLDHRYHEDTVYPGMDVWGQGTLVTVSS
VL: DIELTQPPSVSVAPGQTARISCSGDNLPAYTVTWYQQKPGQAPVLVIYDDSDRPSGIPERFSGSNSGNTATLTISGTQAEDEADYYCASWDPSSGVVFGGGTKLTVL
notes: also called NegCtrl antibody (anti-chicken lysozyme); NegCtrt
B4: FSI-174 (antibody, human IgG1, V domains shown)
VH: B1 VH with N61A, K65Q, M70I, T72A, T74K, R84S, T87R, D89E, A117S
VL: DIVMTQSPLSLPVTPGEPASISCRASESVDIYGQSFMHWYLQKPGQSPQLLIYLASNLESGVPDRFSGSGSGTDFTLKISRVEAEDVGVYYCQQNNEDPYTFGGGTKVEIK
B5: AMG191 (antibody, human IgG1, V domains shown)
VH: B1 VH with M70I, T72A, T74K, R84S, T87R, D89E, A117S
VL: DIVMTQSPDSLAVSLGERATINCRASESVDIYGNSFMHWYQQKPGQPPKLLIYLASNLESGVPDRFSGSGSGTDFTLTISSLQAEDVAVYYCQQNNEDPYTFGGGTKVEIKR
B6: Dufour (antibody, V domains shown)
VH: B1 VH
VL: EIVLTQSPSSLSASVGDRVTITCRASESVDIYGNSFMHWYQQKPGKAPKLLIYLASNLESGVPSRFSGSGSGTDFTLTISSLQPEDFATYYCQQNNEDPYTFGQGTKLEIK
notes: IgG; also called VH1/VL1; HC1 LC1
B7: Bellavista (antibody, V domains shown)
VH: B1 VH with N55Q
VL: B1 VL with K96R
notes: IgG; also called VH1.4/VL1.29
B8: Matterhorn (antibody, V domains shown)
VH: B1 VH
VL: B1 VL with E34S, K96N, E98D
notes: IgG; also called VH1/VL1.4; VH1/LC1.4
B9: Eiger (antibody, V domains shown)
VH: B1 VH
VL: B1 VL with E34S
notes: IgG; also called VH1/VL1.26
B10: Piz Zupo (antibody, V domains shown)
VH: B1 VH
VL: B1 VL with E34Q
notes: IgG; also called VH1/VL1.25
B11: Täschhorn (antibody, V domains shown)
VH: B1 VH
VL: B1 VL with E34R, K96N, E98D
notes: IgG; also called VH1/VL1.3
B12: Weisshorn (antibody, V domains shown)
VH: B1 VH
VL: B1 VL with E34Q, K96N, E98D
notes: IgG; also called VH1/VL1.2; VH1/LC1.2
B13: Parrot (antibody, V domains shown)
VH: B1 VH
VL: B1 VL with E34K, K96N, E98D
notes: IgG; also called VH1/VL1.5
B14: Zinalrithorn (antibody, V domains shown)
VH: B1 VH
VL: B1 VL with E34N, N95H, K96N, E98D
notes: IgG; also called VH1/VL1.12
B15: Weissmies (antibody, V domains shown)
VH: B1 VH with N55S
VL: B1 VL with E34Y, K96N
notes: IgG; also called VH1.2/VL1.16
B16: Schreckhorn (antibody, V domains shown)
VH: B1 VH
VL: B1 VL with E34Y, K96N
notes: IgG; also called VH1/VL1.16

These binders were tested against T1, CD117 on wild-type cells (TF-1 cells, HSPCs, HSCs) (human, UniProt P10721 26-976) (assay: flow cytometry on TF-1 wild-type cells, Fc receptors blocked, goat anti-human IgG Alexa Fluor 488 as secondary antibody).
T1 construct: also called KIT; c-Kit
T1 sequence (P10721 26-976 limits assumed): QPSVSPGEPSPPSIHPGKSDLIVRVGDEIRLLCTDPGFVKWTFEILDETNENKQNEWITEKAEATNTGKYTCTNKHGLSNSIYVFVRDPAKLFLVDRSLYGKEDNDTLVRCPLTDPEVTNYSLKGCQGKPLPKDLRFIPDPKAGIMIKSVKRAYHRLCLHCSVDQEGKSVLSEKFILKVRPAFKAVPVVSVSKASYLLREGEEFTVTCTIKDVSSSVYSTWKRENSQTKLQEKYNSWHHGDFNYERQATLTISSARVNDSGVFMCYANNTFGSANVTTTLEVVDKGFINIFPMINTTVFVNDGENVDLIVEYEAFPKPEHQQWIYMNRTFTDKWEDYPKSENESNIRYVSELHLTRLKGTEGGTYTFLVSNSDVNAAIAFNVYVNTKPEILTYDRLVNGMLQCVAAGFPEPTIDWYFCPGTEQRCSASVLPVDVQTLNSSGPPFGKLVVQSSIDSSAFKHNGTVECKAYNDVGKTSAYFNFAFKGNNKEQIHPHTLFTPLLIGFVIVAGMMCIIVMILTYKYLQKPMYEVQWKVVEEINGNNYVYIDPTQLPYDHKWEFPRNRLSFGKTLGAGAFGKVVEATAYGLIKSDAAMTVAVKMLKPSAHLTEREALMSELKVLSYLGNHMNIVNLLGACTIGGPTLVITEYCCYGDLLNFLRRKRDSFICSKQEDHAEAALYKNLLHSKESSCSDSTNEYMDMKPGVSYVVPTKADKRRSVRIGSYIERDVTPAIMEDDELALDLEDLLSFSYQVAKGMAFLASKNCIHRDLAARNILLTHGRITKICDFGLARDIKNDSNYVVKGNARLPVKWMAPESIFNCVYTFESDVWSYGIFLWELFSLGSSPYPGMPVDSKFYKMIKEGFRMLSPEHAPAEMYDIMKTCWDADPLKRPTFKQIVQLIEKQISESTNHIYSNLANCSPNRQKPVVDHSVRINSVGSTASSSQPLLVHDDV
Protocol: Binding of the antibodies of the present disclosure to CD117 on TF-1 cells was measured. TF-1 wild-type cells were seeded at a concentration of 100,000 cells/well. A Fc receptor blocking was performed using 25 μL TruStain FcX (BioLegend) for 15 min. Next cells are treated with various concentrations of the antibodies to be tested (0.0001-5 μg/ml). After additional 30 min cells were washed, then a secondary antibody was added to the cells (IgG (H+L) Cross-Adsorbed Goat anti-Human, Alexa Fluor® 488). After 30 min and two additional wash steps a live dead staining via 7AAD (7-aminoactinomycin D) was performed using 0.5 μg/mL 7AAD for 10 min before analyzing cells in a flow cytometer.
With B1 the “EC50 (read off the curve)” value was roughly 0.02 µg/mL.
In the case of B2, the “EC50 (read off the curve)” value is reported as roughly 0.04 µg/mL.
B3: no binding (tested: 5 ug/ml).

These binders were tested against T1, CD117 on wild-type cells (TF-1 cells, …) (assay: cell-based or functional assay).
In the case of B4, the “IC50, inhibition of SCF-dependent proliferation of CD34-positive HSPCs (CellTiter-Glo)” value is reported as 0.0253 µg/mL.
For B5, the “IC50, inhibition of SCF-dependent proliferation of CD34-positive HSPCs (CellTiter-Glo)” value was 0.0954 µg/mL.
With B6 the “IC50, inhibition of SCF-dependent proliferation of CD34-positive HSPCs (CellTiter-Glo)” value was 0.0949 µg/mL.
In the case of B1, the “IC50, inhibition of SCF-dependent proliferation of CD34-positive HSPCs (CellTiter-Glo)” value is reported as 0.0313 µg/mL.
With B7 the “IC50, inhibition of SCF-dependent proliferation of CD34-positive HSPCs (CellTiter-Glo)” value was 0.096 µg/mL.
For B8, the “IC50, inhibition of SCF-dependent proliferation of CD34-positive HSPCs (CellTiter-Glo)” value was 0.0716 µg/mL.
For B2, the “IC50, inhibition of SCF-dependent proliferation of CD34-positive HSPCs (CellTiter-Glo)” value was 0.0842 µg/mL.
B9 was tested, and the “IC50, inhibition of SCF-dependent proliferation of CD34-positive HSPCs (CellTiter-Glo)” value was 0.594 µg/mL.
With B10 the “IC50, inhibition of SCF-dependent proliferation of CD34-positive HSPCs (CellTiter-Glo)” value was 0.114 µg/mL.
For B3, the “IC50, inhibition of SCF-dependent proliferation of CD34-positive HSPCs (CellTiter-Glo)” value was greater than 10 µg/mL.

Biological target: T1, CD117 on wild-type cells (TF-1 cells, …)
Experiment: cell-based or functional assay
Remark: another data set of the same source
In the case of B4, the “IC50, inhibition of SCF-dependent proliferation of TF-1 cells (CellTiter-Glo), Average” value (shortened to “IC50, inhibition … Average”) is reported as 0.0473 µg/mL, the “IC50, inhibition of SCF-dependent proliferation of TF-1 cells (CellTiter-Glo), Experiment #1” value (“IC50, inhibition … Experiment #1” for short) is reported as 0.0387 µg/mL and the “IC50, inhibition of SCF-dependent proliferation of TF-1 cells (CellTiter-Glo), Experiment #2” value (from here on “IC50, inhibition … Experiment #2”) is reported as 0.056 µg/mL.
With B5 the “IC50, inhibition … Average” value was 0.208 µg/mL, the “IC50, inhibition … Experiment #1” value was 0.093 µg/mL and the “IC50, inhibition … Experiment #2” value was 0.323 µg/mL.
For B6, the “IC50, inhibition … Average” value was 0.22 µg/mL, the “IC50, inhibition … Experiment #1” value was 0.12 µg/mL and the “IC50, inhibition … Experiment #2” value was 0.321 µg/mL.
With B1 the “IC50, inhibition … Average” value was 0.0441 µg/mL, the “IC50, inhibition … Experiment #1” value was 0.0415 µg/mL and the “IC50, inhibition … Experiment #2” value was 0.0467 µg/mL.
B7 was tested, and the “IC50, inhibition … Average” value was 0.157 µg/mL, the “IC50, inhibition … Experiment #1” value was 0.103 µg/mL and the “IC50, inhibition … Experiment #2” value was 0.212 µg/mL.
For B8, the “IC50, inhibition … Average” value was 0.116 µg/mL, the “IC50, inhibition … Experiment #1” value was 0.0648 µg/mL and the “IC50, inhibition … Experiment #2” value was 0.168 µg/mL.
B2 was tested, and the “IC50, inhibition … Average” value was 0.151 µg/mL, the “IC50, inhibition … Experiment #1” value was 0.0455 µg/mL and the “IC50, inhibition … Experiment #2” value was 0.256 µg/mL.
In the case of B9, the “IC50, inhibition … Average” value is reported as greater than 0.5 µg/mL, the “IC50, inhibition … Experiment #1” value is reported as greater than 0.5 µg/mL and the “IC50, inhibition … Experiment #2” value is reported as greater than 0.5 µg/mL.
B10 was tested, and the “IC50, inhibition … Average” value was greater than 0.5 µg/mL, the “IC50, inhibition … Experiment #1” value was greater than 0.5 µg/mL and the “IC50, inhibition … Experiment #2” value was greater than 0.5 µg/mL.
For B3, the “IC50, inhibition … Average” value was greater than 0.5 µg/mL, the “IC50, inhibition … Experiment #1” value was greater than 0.5 µg/mL and the “IC50, inhibition … Experiment #2” value was greater than 0.5 µg/mL.

The binders below were run against T2, human recombinant CD117 (c-Kit) from Sino Biological (Catalog No. 11996-H08H) (human, UniProt P10721 26-524) (assay: BLI Octet, IgG on anti-human Fc sensor, soluble CD117, 1:1 fit).
T2 construct: also called soluble antigen
T2 sequence (P10721 26-524 limits assumed): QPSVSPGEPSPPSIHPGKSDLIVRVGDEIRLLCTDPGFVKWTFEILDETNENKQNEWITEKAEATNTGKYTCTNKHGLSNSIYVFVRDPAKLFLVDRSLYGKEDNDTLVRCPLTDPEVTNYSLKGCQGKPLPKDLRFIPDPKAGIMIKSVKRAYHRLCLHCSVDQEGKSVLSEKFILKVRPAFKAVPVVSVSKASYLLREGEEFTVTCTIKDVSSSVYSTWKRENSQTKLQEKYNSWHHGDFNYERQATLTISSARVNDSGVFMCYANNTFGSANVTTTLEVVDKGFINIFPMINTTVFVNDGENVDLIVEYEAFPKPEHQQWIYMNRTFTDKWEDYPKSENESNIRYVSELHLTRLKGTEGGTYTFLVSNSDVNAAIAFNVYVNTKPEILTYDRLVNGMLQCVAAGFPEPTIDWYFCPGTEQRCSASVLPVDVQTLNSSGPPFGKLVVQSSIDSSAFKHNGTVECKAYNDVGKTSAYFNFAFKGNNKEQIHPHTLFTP
Protocol: IgG antibodies were immobilized on biosensors using suitable capture surfaces and binding of soluble antigen to immobilized antibodies was monitored by BLI (Octet). The resulting sensorgrams were analyzed using the supplied software (Fortebio). As antigen human recombinant CD117 (c-Kit) from Sino Biological was used (Catalog No. 11996-H08H, Lot #LC14SE0812). As a pre-experiment a series of experiments was performed to optimize assay parameters. The following parameters were selected:
(§1) In the main experiment kinetic assays were performed by first capturing IgG using anti-human Fc biosensors. The mAb capture biosensors were then submerged in wells containing different concentrations of antigen (association stage) followed by a dissociation step in running buffer. To allow for double reference correction, IgG-captured sensors were dipped into wells containing only buffer and blank sensors were also dipped into wells containing the antigen. This referencing provided a means of compensating for both the natural dissociation of the capture IgG and non-specific binding of the antigen to the sensor surface. Steps were performed at 25° C. at a constant shaking of 1000 rpm. New sensors were used for each sample. Dissociation rate constants (Kd) were calculated using the ForteBio Data Analysis software. All consumables used were those recommended by ForteBio.
(§2) All samples were diluted in freshly prepared running buffer. Antibody variants were immobilized onto the surface of a series of biosensors using the capture methods described. Antigen was passed over the surface to generate a binding response. Binding data for the IgG:antigen interactions were collected at 25° C. on the biosensors. A dilution series of the antigen was used in the association step, in order to fit results globally and get the best values for ka, kd, and KD. The response data for the binding of antigen to the surface immobilized IgG were fitted to a 1:1 binding model. HC0 LC0 refers to murine SR-1.
With B6 the Kd was 0.79 nM, the koff was 0.000397 s⁻¹ and the kon was 503000 M⁻¹ s⁻¹.

These binders were tested against T2, human recombinant CD117 (c-Kit) from … (assay: BLI Octet, set-up as in Example 2).
Protocol: as §1, §2
B6 was tested, and the Kd was 0.4 nM.
Work on B1 yielded a Kd of 0.45 nM.
B7 was tested, and the Kd was 1.3 nM.
With B11 the Kd was 3.5 nM.
B8 gave a Kd of 0.5 nM.
In the case of B2, the Kd is reported as 1.1 nM.
B12 showed a Kd of 0.3 nM.
For B9, the Kd was 1.6 nM.
B13 gave a Kd of 3.7 nM.
For B14, the Kd was 1.3 nM.
Work on B10 yielded a Kd of 1.1 nM.
Binder B15 has a Kd of 0.37 nM.
With B16 the Kd was 0.13 nM.
